Test results as given in patent publication US20120277286A1, “COMPOSITIONS AND METHODS FOR THE TREATMENT OR PREVENTION OF MITOCHONDRIAL DISEASES” (The Government of the USA, as represented by the Secretary, …, priority 2009, published 2012).
*1 amine or outer side, *2 acyl side, *3 side chain or, on linkers, in order; H or OH if unused. Where a SMILES comes first, the peptide text is derived from it. Bridges are numbered along the chain shown (N, C = ends). Roman numbers before positions name the chains, in order. [ ]: non-standard residue; d: D form. Actinocin(9to1) = Cc1c2oc3c(C)ccc(C(=O)[*:1])c3nc-2c(C(=O)[*:2])c(N)c1=O; NMeV = CN[C@H](C(=O)O)C(C)C; Sar = CNCC(=O)O

Tested on: HeLa cells
Assay: Parkin colocalization with mitochondria scored by confocal microscopy
Assay type: cell-based
Conditions: for effect on CCCP-induced Parkin recruitment to mitochondria: HeLa cells expressing YFP-Parkin, added together with CCCP; for spontaneous translocation of mutant YFP-Parkin to mitochondria: without CCCP; for recruitment of mutant YFP-Parkin to depolarized mitochondria: CCCP 1 hr
Description: Cultured cells seeded in borosilicate chamber slides (Thermo Fisher Scientific) were transfected or cotransfected with YFP-Parkin, ECFP-Parkin, mCherry-Parkin, DsRed-Mito (Clontech Laboratories, Inc.), pcDNA3.1 (Invitrogen), vMIA, and/or Drp1K38A constructs using Fugene 6 (Roche). Parkin-myc was a gift from M. Cookson (National Institutes of Health, Bethesda, Md.). Cells were fixed 12-24 hours after transfection with 4% paraformaldehyde in PBS. Cells were stained with following primary antibodies: mouse monoclonal cytochrome c (BD), rabbit polyclonal Tom20 (Santa Cruz Biotechnology, Inc.), mouse monoclonal Parkin PRK8 (Santa Cruz Biotechnology, Inc.), rabbit polyclonal PMP70 (Invitrogen), and/or mouse monoclonal TRAP1 (Abcam); and with the following secondary antibodies: mouse and/or rabbit Alexa 488, 594, and 633 (Invitrogen). For assessment of mitochondrial membrane potential, cells were pulsed with 50 nM Mito-Tracker red (Invitrogen) for 15 min, washed, and incubated for an additional 10 minutes before fixation or imaging. For assessment of cell metabolic potential, cell nuclei were stained with Hoechst 33342 (Invitrogen).
Fixed cells and live cells in the FLIP assay were imaged using an inverted microscope (LSM510 Meta; Carl Zeiss, Inc.) with a 63×/1.4 oil DIC Plan Apo objective at 25° C. and 37° C., respectively. For the FLIP assay, a bleach region of interest (ROI) occupying approximately one eighth of the cell was positioned over a relatively mitochondria-free portion of the cytosol. Cells were alternately bleached (488 nm using a 30-mW argon laser at 75% power and 100% transmission for 150 iterations) and imaged (488 nm at 75% power and 2% transmission) for 10 minutes (—60 cycles over the length of the experiment). Two channel prebleach and postbleach images were obtained with 488 and 594 lasers to assess the position of mitochondria before and after bleaching. Circular ROIs with diameters of ˜1 and 5 μm, respectively, were placed over the mitochondria and cytosol of the target cell, and an ROI of 10 μm was placed over the control cell. Imaging of YFP-Parkin translocation in live HeLa cells was performed on a live cell imager system (UltraView LCI; PerkinElmer) at 35° C. with a 100×/1.45 α-Plan-Fluor objective.
Image contrast and brightness were adjusted in Photoshop (Adobe). Colocalization was assessed with line scans using MetaMorph (MDS Analytical Technologies). For analysis of mitochondrial membrane potential in cells, mitochondrial voxels in each image (the cytochrome c channel threshold was ≧400 au) were segregated into Parkin-positive (the YFP-Parkin channel threshold was ≧1,100 au) or Parkin-negative subsets, and MitoTracker intensity for each voxel was measured using Volocity software (Improvision). For each cell, the mean MitoTracker intensity per voxel was calculated for the Parkin-positive and Parkin-negative subsets. The difference in mean Mito-Tracker intensity between the Parkin-positive and Parkin-negative subsets was calculated using a paired t test. Western blotting HeLa cells stably expressing YFP-Parkin, HEK293 cells, and rat cortical neurons 2 days in vitro were harvested and fractionated as described previously (Karbowski et al., J. Cell Biol. 178: 71-84, 2007). Samples were run on SDS-PAGE and immunoblotted with the following antibodies: polyclonal rabbit anti-GFP (Invitrogen), mouse monoclonal anti-Parkin (PRK8), and mouse monoclonal anti-Porin 31HL (EMD).
Confocal microscopy of fixed samples, scoring of Parkin recruitment and Parkininduced mitophagy, and live cell imaging were performed as described previously (Narendra (2008) J Cell Biol 183: 795-803). Experiments in Mfn1/2 null cells were performed as described previously with minor modifications.
Confocal microscopy of fixed samples, scoring of Parkin recruitment and Parkin-induced mitophagy, and live cell imageing were performed as described previously (Narendra (2008) J Cell Biol 183: 795-803). […]

CC(=O)N[C@@H](CS)C(=O)O [N-acetyl-cysteine, reference compound]
effect on CCCP-induced Parkin recruitment to mitochondria: not blocked

Cc1c2oc3c(C)ccc(C(=O)N[C@@H]4C(=O)N[C@H](C(C)C)C(=O)N5CCC[C@H]5C(=O)N(C)CC(=O)N(C)[C@@H](C(C)C)C(=O)O[C@@H]4C)c3nc-2c(C(=O)N[C@@H]2C(=O)N[C@H](C(C)C)C(=O)N3CCC[C@H]3C(=O)N(C)CC(=O)N(C)[C@@H](C(C)C)C(=O)O[C@@H]2C)c(N)c1=O [actinomycin D, reference compound] (I: T[dV]P[Sar][NMeV] / II: T[dV]P[Sar][NMeV]; ester I:1-I:C, II:1-II:C; linker I:N-II:N via Actinocin(9to1))
effect on CCCP-induced Parkin recruitment to mitochondria: modest effect

CC[C@H]1/C=C/C=C/C[C@@H](C)[C@H](O)[C@@](C)(O)C(=O)[C@@H](C)[C@H](O)[C@@H](C)C(=O)[C@@H](C)[C@H](O)[C@@H](C)/C=C/C(=O)O[C@@H]2[C@H](C)[C@H](CC1)O[C@]1(CC[C@H](C)[C@H](C[C@@H](C)O)O1)[C@H]2C [oligomycin, reference compound]
effect on CCCP-induced Parkin recruitment to mitochondria: not inhibited | YFP-Parkin colocalization with mitochondria, % of cells (HeLa cells, 10 μM CCCP+10 μM oligomycin, 1 hour): 77.35±7.64%

B1: T175E: phosphomimetic YFP-Parkin mutant (protein, UniProt O60260 1-465, looked up, variant T175E)
E3 ubiquitin-protein ligase …: MIVFVRFNSSHGFPVEVDSDTSIFQLKEVVAKRQGVPADQLRVIFAGKELRNDWTVQNCDLDQQSIVHIVQRPWRKGQEMNATGGDDPRNAAGGCEREPQSLTRVDLSSSVLPGDSVGLAVILHTDSRKDSPPAGSPAGRSIYNSFYVYCKGPCQRVQPGKLRVQCSTCRQATLELTQGPSCWDDVLIPNRMSGECQSPHCPGTSAEFFFKCGAHPTSDKETSVALHLIATNSRNITCITCTDVRSPVLVFQCNSRHVICLDCFHLYCVTRLNDRQFVHDPQLGYSLPCVAGCPNSLIKELHHFRILGEEQYNRYQQYGAEECVLQMGGVLCPRPGCGAGLLPEPDQRKVTCEGGNGLGCGFAFCRECKEAYHEGECSAVFEASGTTTQAYRVDERAAEQARWEAASKETIKKTTKPCPRCHVPVEKNGGCMHMKCPQPQCRLEWCWNCGCEWNRVCMGDHWFDV
modifications: YFP fusion
notes: phosphomimetic YFP-Parkin mutant
spontaneous translocation of mutant YFP-Parkin to mitochondria (HeLa): did not translocate to mitochondria spontaneously

B2: C212Y: YFP-Parkin patient mutation in conserved RING-like region (protein, UniProt O60260 1-465, looked up, variant C212Y)
E3 ubiquitin-protein ligase …: MIVFVRFNSSHGFPVEVDSDTSIFQLKEVVAKRQGVPADQLRVIFAGKELRNDWTVQNCDLDQQSIVHIVQRPWRKGQEMNATGGDDPRNAAGGCEREPQSLTRVDLSSSVLPGDSVGLAVILHTDSRKDSPPAGSPAGRSIYNSFYVYCKGPCQRVQPGKLRVQCSTCRQATLTLTQGPSCWDDVLIPNRMSGECQSPHCPGTSAEFFFKYGAHPTSDKETSVALHLIATNSRNITCITCTDVRSPVLVFQCNSRHVICLDCFHLYCVTRLNDRQFVHDPQLGYSLPCVAGCPNSLIKELHHFRILGEEQYNRYQQYGAEECVLQMGGVLCPRPGCGAGLLPEPDQRKVTCEGGNGLGCGFAFCRECKEAYHEGECSAVFEASGTTTQAYRVDERAAEQARWEAASKETIKKTTKPCPRCHVPVEKNGGCMHMKCPQPQCRLEWCWNCGCEWNRVCMGDHWFDV
modifications: N-terminal YFP fusion
notes: YFP-Parkin patient mutation in conserved RING-like region
recruitment of mutant YFP-Parkin to depolarized mitochondria (HeLa): blocked

B3: T217E: phosphomimetic YFP-Parkin mutant (protein, UniProt O60260 1-465, looked up, variant T217E)
E3 ubiquitin-protein ligase …: MIVFVRFNSSHGFPVEVDSDTSIFQLKEVVAKRQGVPADQLRVIFAGKELRNDWTVQNCDLDQQSIVHIVQRPWRKGQEMNATGGDDPRNAAGGCEREPQSLTRVDLSSSVLPGDSVGLAVILHTDSRKDSPPAGSPAGRSIYNSFYVYCKGPCQRVQPGKLRVQCSTCRQATLTLTQGPSCWDDVLIPNRMSGECQSPHCPGTSAEFFFKCGAHPESDKETSVALHLIATNSRNITCITCTDVRSPVLVFQCNSRHVICLDCFHLYCVTRLNDRQFVHDPQLGYSLPCVAGCPNSLIKELHHFRILGEEQYNRYQQYGAEECVLQMGGVLCPRPGCGAGLLPEPDQRKVTCEGGNGLGCGFAFCRECKEAYHEGECSAVFEASGTTTQAYRVDERAAEQARWEAASKETIKKTTKPCPRCHVPVEKNGGCMHMKCPQPQCRLEWCWNCGCEWNRVCMGDHWFDV
modifications: YFP fusion
notes: as for B1
spontaneous translocation of mutant YFP-Parkin to mitochondria (HeLa): did not translocate to mitochondria spontaneously

B4: T175, 217E: double phosphomimetic YFP-Parkin mutant (protein, UniProt O60260 1-465, looked up, variant T175E T217E)
E3 ubiquitin-protein ligase …: MIVFVRFNSSHGFPVEVDSDTSIFQLKEVVAKRQGVPADQLRVIFAGKELRNDWTVQNCDLDQQSIVHIVQRPWRKGQEMNATGGDDPRNAAGGCEREPQSLTRVDLSSSVLPGDSVGLAVILHTDSRKDSPPAGSPAGRSIYNSFYVYCKGPCQRVQPGKLRVQCSTCRQATLELTQGPSCWDDVLIPNRMSGECQSPHCPGTSAEFFFKCGAHPESDKETSVALHLIATNSRNITCITCTDVRSPVLVFQCNSRHVICLDCFHLYCVTRLNDRQFVHDPQLGYSLPCVAGCPNSLIKELHHFRILGEEQYNRYQQYGAEECVLQMGGVLCPRPGCGAGLLPEPDQRKVTCEGGNGLGCGFAFCRECKEAYHEGECSAVFEASGTTTQAYRVDERAAEQARWEAASKETIKKTTKPCPRCHVPVEKNGGCMHMKCPQPQCRLEWCWNCGCEWNRVCMGDHWFDV
modifications: YFP fusion
notes: double phosphomimetic YFP-Parkin mutant
spontaneous translocation of mutant YFP-Parkin to mitochondria (HeLa): did not translocate to mitochondria spontaneously

B5: I44A: YFP-Parkin with engineered UBL mutation (protein, UniProt O60260 1-465, looked up, variant I44A)
E3 ubiquitin-protein ligase …: MIVFVRFNSSHGFPVEVDSDTSIFQLKEVVAKRQGVPADQLRVAFAGKELRNDWTVQNCDLDQQSIVHIVQRPWRKGQEMNATGGDDPRNAAGGCEREPQSLTRVDLSSSVLPGDSVGLAVILHTDSRKDSPPAGSPAGRSIYNSFYVYCKGPCQRVQPGKLRVQCSTCRQATLTLTQGPSCWDDVLIPNRMSGECQSPHCPGTSAEFFFKCGAHPTSDKETSVALHLIATNSRNITCITCTDVRSPVLVFQCNSRHVICLDCFHLYCVTRLNDRQFVHDPQLGYSLPCVAGCPNSLIKELHHFRILGEEQYNRYQQYGAEECVLQMGGVLCPRPGCGAGLLPEPDQRKVTCEGGNGLGCGFAFCRECKEAYHEGECSAVFEASGTTTQAYRVDERAAEQARWEAASKETIKKTTKPCPRCHVPVEKNGGCMHMKCPQPQCRLEWCWNCGCEWNRVCMGDHWFDV
modifications: YFP fusion
notes: YFP-Parkin with engineered UBL mutation
recruitment of mutant YFP-Parkin to depolarized mitochondria (HeLa): moderate deficit

B6: PINK1-YFP: YFP fused to PINK1 (protein, UniProt Q9BXM7 78-581, looked up)
Serine/threonine-protein …: AARLQRQFVVRAWGCAGPCGRAVFLAFGLGLGLIEEKQAESRRAVSACQEIQAIFTQKSKPGPDPLDTRRLQGFRLEEYLIGQSIGKGCSAAVYEATMPTLPQNLEVTKSTGLLPGRGPGTSAPGEGQERAPGAPAFPLAIKMMWNISAGSSSEAILNTMSQELVPASRVALAGEYGAVTYRKSKRGPKQLAPHPNIIRVLRAFTSSVPLLPGALVDYPDVLPSRLHPEGLGHGRTLFLVMKNYPCTLRQYLCVNTPSPRLAAMMLLQLLEGVDHLVQQGIAHRDLKSDNILVELDPDGCPWLVIADFGCCLADESIGLQLPFSSWYVDRGGNGCLMAPEVSTARPGPRAVIDYSKADAWAVGAIAYEIFGLVNPFYGQGKAHLESRSYQEAQLPALPESVPPDVRQLVRALLQREASKRPSARVAANVLHLSLWGEHILALKNLKLDKMVGWLLQQSAATLLANRLTEKCCVETKMKMLFLANLECETLCQAALLLCSWRAAL
modifications: YFP fusion
cells with mCherry-Parkin recruited to mitochondria (HeLa, co-expression, absence of CCCP): 57.9±1.8%
